Source: patent US20140235820A1, “METHODS AND COMPOSITIONS FOR MODULATING THE Wnt PATHWAY” (Genentech, Inc., priority 2010, published 2014)
Numbering of substitutions follows the chain as printed. Names may count otherwise. Each block holds one binder with its values, some of them ahead of it.

Assays:
[1] = biological target: T1, human LRP6 construct E1E2 (amino acids A20-E631) (human, UniProt O75581 20-631, biotinylated for biolayer interferometry); assay: BLI affinity
T1 construct: range 20-631; also called LRP6 E1E2
T1 sequence (looked up): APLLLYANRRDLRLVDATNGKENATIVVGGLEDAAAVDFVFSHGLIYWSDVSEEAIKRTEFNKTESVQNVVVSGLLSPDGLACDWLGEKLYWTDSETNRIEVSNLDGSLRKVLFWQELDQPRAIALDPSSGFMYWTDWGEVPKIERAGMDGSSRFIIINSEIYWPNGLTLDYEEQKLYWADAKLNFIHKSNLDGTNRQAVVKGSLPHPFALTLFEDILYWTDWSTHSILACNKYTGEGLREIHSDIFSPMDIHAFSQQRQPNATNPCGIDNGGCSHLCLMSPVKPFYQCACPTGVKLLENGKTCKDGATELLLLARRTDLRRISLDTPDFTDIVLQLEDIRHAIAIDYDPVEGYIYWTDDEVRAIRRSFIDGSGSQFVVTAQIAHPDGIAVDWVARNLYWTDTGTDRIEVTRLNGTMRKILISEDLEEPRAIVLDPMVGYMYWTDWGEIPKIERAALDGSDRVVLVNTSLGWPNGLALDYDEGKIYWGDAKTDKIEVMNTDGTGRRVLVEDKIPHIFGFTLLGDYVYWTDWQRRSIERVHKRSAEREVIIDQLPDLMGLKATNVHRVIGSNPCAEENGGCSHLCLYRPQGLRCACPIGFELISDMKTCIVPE
Method: (§1) Binding kinetics were measured by biolayer interferometry using an Octet Red instrument (ForteBio) as previously described (11). Streptavidin (SA) biosensors were loaded with biotinylated hLRP6 in 50 mMTris, pH 8, 300 mM NaCl, 5% (v/v) glycerol, and 0.05% (w/v) Triton X-100. The loaded biosensors were washed in the same buffer before carrying out association and dissociation measurements for the indicated times. The Kd of each interaction was determined using steady state-analysis through the Octet Red software v6.3. Each reported value represents an average of three or more experiments at different concentrations, with a fitted experimental curve for which the square of the correlation coefficient (R²) is above 0.96.

[2] = biological target: T2, human LRP6 construct E1E4 (amino acids A20-Q1253) (human, UniProt O75581 20-1253, biotinylated for biolayer interferometry); assay: BLI (FIG. 9B)
T2 construct: range 20-1253; Expressed in Tni insect cells; tags not specified for this construct; also called LRP6 E1E4
T2 sequence (looked up): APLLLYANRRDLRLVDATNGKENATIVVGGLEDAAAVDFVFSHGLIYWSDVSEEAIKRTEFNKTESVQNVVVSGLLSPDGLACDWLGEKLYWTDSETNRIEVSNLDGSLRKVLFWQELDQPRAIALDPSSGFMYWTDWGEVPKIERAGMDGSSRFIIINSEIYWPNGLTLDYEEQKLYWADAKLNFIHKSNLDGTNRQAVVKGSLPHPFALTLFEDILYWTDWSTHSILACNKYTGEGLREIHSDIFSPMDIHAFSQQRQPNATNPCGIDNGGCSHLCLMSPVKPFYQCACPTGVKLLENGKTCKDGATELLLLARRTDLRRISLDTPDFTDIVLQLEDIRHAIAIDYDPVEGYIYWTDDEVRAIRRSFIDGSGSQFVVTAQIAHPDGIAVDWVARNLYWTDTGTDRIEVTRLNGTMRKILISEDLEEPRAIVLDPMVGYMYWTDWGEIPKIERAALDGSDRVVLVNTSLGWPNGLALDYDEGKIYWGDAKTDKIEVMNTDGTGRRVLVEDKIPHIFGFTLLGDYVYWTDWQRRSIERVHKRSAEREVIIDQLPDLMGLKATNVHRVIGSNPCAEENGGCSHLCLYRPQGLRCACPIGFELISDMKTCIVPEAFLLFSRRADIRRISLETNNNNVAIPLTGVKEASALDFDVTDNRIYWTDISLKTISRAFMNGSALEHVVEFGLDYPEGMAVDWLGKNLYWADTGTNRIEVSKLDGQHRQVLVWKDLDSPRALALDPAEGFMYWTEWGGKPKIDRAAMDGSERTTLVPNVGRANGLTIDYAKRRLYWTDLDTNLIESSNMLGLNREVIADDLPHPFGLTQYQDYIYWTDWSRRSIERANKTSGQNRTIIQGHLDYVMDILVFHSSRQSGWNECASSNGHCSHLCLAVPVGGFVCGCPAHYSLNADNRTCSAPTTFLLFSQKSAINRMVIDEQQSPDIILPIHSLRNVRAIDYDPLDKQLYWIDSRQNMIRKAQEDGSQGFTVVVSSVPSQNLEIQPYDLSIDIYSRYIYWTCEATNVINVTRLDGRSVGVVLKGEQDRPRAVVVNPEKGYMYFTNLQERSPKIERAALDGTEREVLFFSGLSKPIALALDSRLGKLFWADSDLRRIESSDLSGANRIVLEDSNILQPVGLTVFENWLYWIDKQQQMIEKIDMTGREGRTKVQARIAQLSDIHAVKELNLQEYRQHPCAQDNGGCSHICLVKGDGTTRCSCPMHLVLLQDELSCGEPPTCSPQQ
Method: as §1

[3] = biological target: T1, human LRP6 construct E1E2 (amino acids …); assay: BLI (FIG. 9B)
Method: as §1

- fold loss in affinity against wild-type Dkk1 [1]: > 364 fold
B1: Dkk1 Ile42Glu (ligand, human, UniProt O94907 32-266, looked up)
chain: TLNSVLNSNAEKNLPPPLGGAAGHPGSAVSAAPGILYPGGNKYQTIDNYQPYPCAEDEECGTDEYCASPTRGGDAGVQICLACRKRRKRCMRHAMCCPGNYCKNGICVSSDQNHFRGEIEETITESFGNDHSTLDGYSRRTTLSSKMYHTKGQEGSVCLRSSDCASGLCCARHFWSKICKPVLKEGQVCTKHRRKGSHGLEIFQRCYCGEGLSCRIQKDHHQASNSSRLHTCQRH
notes: also called Dkk1 I42E

- binding result [2]: binds
- binding result [3]: binds
B2: Dkk1 K211E (ligand, human, UniProt O94907 32-266, looked up)
chain: B1 chain with E11I, K180E
notes: also called Dkk1 Lys211Glu
